Source: the supplement of paper PMC9170038

System: MS2 coat protein
Test: apparent KD of MS2 coat protein; designed switch direction (-1 OFF switch, 1 ON switch): -1; higher = weaker reporter binding
Procedure, shortened: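 Designed RNA switches with common flanks were made on Illumina chips by stalled E. coli RNA polymerase. Titration with SNAP-549-labelled MS2 coat protein doubled from 0.7 or 1.5 nM up to 3 µM. Apparent KD is each design's median over clusters after curve-fitting normalised fluorescence.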

[1] = Eterna round: R95, input ligand: FMN 200 uM
[2] = Eterna round: R95, input ligand: microRNA oligo, concentration not stated
[3] = Eterna round: R95, input ligand: none
[4] = input ligand: microRNA oligo, concentration not stated

Sequence	apparent KD of MS2 coat protein [1] [nM]	apparent KD of MS2 coat protein [2] [nM]	apparent KD of MS2 coat protein [3] [nM]	apparent KD of MS2 coat protein (input ligand: FMN 200 uM) [nM]	apparent KD of MS2 coat protein [4] [nM]	apparent KD of MS2 coat protein (input ligand: none) [nM]
AGAGAGUCAGGAUAUCGGUGUGCGAGGAGAGGAGAGAGAGACGAGAAGGGACAUGAGGAUCACCCAUGUAGGUG [JR_Exclusion4)Sub019] (puzzle: Exclusion 4)	366	389	318	–	–	–
AGAGCUGCCCAUGACCGCAAGCUUUUUGCUUGUCUUACCACAUGAGGAUCACCCAUGUGACAUGGGCUCCUUAUAAA [Azavees] (puzzle: Sensor v3, turn-off variant 2)	13.9	9.41	13.3	–	–	–
AGAGUACUGCGAGGAUAUACAUGAGGAUCACCCAUGUAAAAGUGUGAGGCAAAGCCUCACACUAUGUAGAAGGCGCAGUACUCA [Mat - Exclusion NG 2 - Mod of JL - D12] (Eterna round: R96, puzzle: Exclusion NG 2)	–	–	–	19	9.76	18.2
AGAGUAGGCAUAGGAUAUCCGAAAGGAAGUGUAGGAGAAGGAUGUCGAGACAUGAGGAUCACCCAUGUGAUGCUUAGUCGAAAG [PowerStrip EXNG 1.18] (Eterna round: R96, puzzle: Exclusion NG 1)	–	–	–	359	61.1	50.8
AGAGUGCUGCGAGGAUAUACAUGAGGAUCACCCAUGUAUUAGUGUGAGGCAAAGCCUCACACAAUGUAGAAGGCGCAGUACUCA [Mat - Exclusion NG 2 - Mod of JL - D9] (Eterna round: R96, puzzle: Exclusion NG 2)	–	–	–	8.83	12.2	18.4
AGAGUGCUGCGAGGAUAUACAUGAGGAUCACCCAUGUGGAUCUGUGAGGCAAAGCCUCACAGGAUGUAGAAGGCGCAGUACUCA [Mat - Exclusion NG 2 - Mod of JL - D49] (Eterna round: R96, puzzle: Exclusion NG 2)	–	–	–	156	23.4	28.9
AGAGUGUGAGGAUAUAUGGUAAAAGUGAAGAGAGAGGAGGAGUAGAAGGUACAUGAGGAUCACCCAUGUUUGGA [JR_Exclu4_Sub074] (puzzle: Exclusion 4)	–	38.1	–	–	–	–
AGAUAACAUGAGGAUCACCCAUGUGAGGAUAUUUACUCAAGAGCUUCGGCUCUCAGGUGAAGAAGGCGCAAUGA [EX1 #55] (Eterna round: R97, puzzle: Exclusion 1)	–	–	–	44.7	–	45.7
AGAUAGUCAGGAUAUUAGUGGUGGAGGGAUAAUUUUAUUUUUGAGAAGGGACAUGAGGAUCACCCAUGUAAUAU [JR_Ex4_Sub064] (Eterna round: R97, puzzle: Exclusion 4)	–	–	–	33.3	–	43.5
AGAUAGUGCAGAGGAUAUCUUAAUAGAAAGAAUAGAGAAGGCUGACAUGAGGAUCACCCAUGUGAUGUCUUGAGACUACAUGGU [Prohibition 33 - Jieux - Exclusion NG 1] (Eterna round: R96, puzzle: Exclusion NG 1)	–	–	–	–	45.9	–
AGAUAGUGCGGAGGAUAUCUUAAUAGAAAGAAUAGAGAAGGCUGACAUGAGGAUCACCCAUGUGAGGUCUUGAGACUACAUGGU [Prohibition 35 - Jieux - Exclusion NG 1] (Eterna round: R96, puzzle: Exclusion NG 1)	–	–	–	66.3	12.9	18.2
AGAUAUUCGGUAGGAUAUCAGAAAGGAAGUGUAUGAGAAGGACCGAGCCGGAAACCGGUACAUGAGGAUCACCCAUGUGGUCCA [PowerStrip EXNG 1.23] (Eterna round: R96, puzzle: Exclusion NG 1)	–	–	–	20.4	14	16.4
